Test: yeast display, Sf9 membrane polyspecificity reagent, FACS + sequencing; frameworks hold sequencing errors
Procedure, shortened: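 Synthetic nanobody libraries on Saccharomyces cerevisiae BJ5465 were galactose-induced for 36–48 hours, stained 1 hour at 4 °C with 10% biotinylated, detergent-solubilized Sf9 membrane reagent and enriched on streptavidin microbeads. FACS then separated cells into low and high (top ~1%) gates by anti-HA (expression) and streptavidin (reagent binding) fluorescence. Genes were colony-PCR amplified, MiSeq 2 × 250 sequenced and CDR-length filtered. A clone's polyreactivity label is that of its gate of origin.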

| Sequence | polyreactivity (PSR sort gate) |
| --- | --- |
| QVQLVESGGGLVQAGGSLRLSCAASGRTFRRYVMGWYRQAPGKERELVAAISYSGATTYYADSVKGRFTISRDNAKNTVYLQMNSLKPEDTAVYYCAATAPGDRYFWGQGTQVTVSS | high polyreactivity |
| QVQLVESGGGLGQAGGRLRLSCAASGIYYNAMGWYRQAPGNERELVAAITTGDRTNYADSVKGRFTISRDNAKNTVYLQMNSLKPEDTAVYYCNAVVERLSSTARDFAYDYWGQGTQVTVSS | low polyreactivity |
| QVQLVESGGGLVQAGGSLRLSCAASGSIYVWYDMGWYRQAPGKERELVDTISLSGVSTYYADSVKGRFTISRDNAKNTVYLQMNSLKPEDTAVYYCAADFVEQGEDDYWGQGTQVTVSS | low polyreactivity |
| QVQLVESGRCLVQAGGSLRLSCAASGITFDGNAMGWYRQEPGKERELVAGITRIGGGTYYADSVKGRFTISRDNAKNTVYLQMNSLKPEDTAVYYSAKDALVPNFTKDIFEYDYWGQVTQVTVSS | low polyreactivity |
| QVQLVESGGGLVQAGGSLRLSCAASGLTFPSYAMGWYRQAPGKVSELVAAISARGGGTYYADSVKGRFTISRDNAKNTVYLQMNSLKPEDTAVYYCAADPVYAGPGYDYWGQGTQVTVSS | high polyreactivity |
| QVQLVESGGGLVQAGGSLRLSCAASGRTFFGYAMGWYRQATGKERELVAAINWGGASTYYADSVKGRFTISRDNAKNTVYLQMNSLKPEDTAVYYCAADSVPSRPTYGRYDYWGQGTQVTVSS | low polyreactivity |
| QVQLVESGGGLVQAGGSLRLICAASGSILGTYAMGWYRQAPGNDRELVAAISSSGRTSYADSVKGRFTISRDNAKNTVYLQMNSLKPEETAVYYCNASNYIFLINDPDAAPWLYDYWGQGSQVTVSS | low polyreactivity |
| QVQLVESGGGLVQAGGSLPLSCAASGSTFSPYDMGWYIQAPGKDRELVAVITGSDGTYYADSVKGRFTITRDNAKNTVYVQMNSLKPEDTAVYYCATDWNFGRWYTLGVEMDYWGQGTQVTVSS | low polyreactivity |
| QVQLVESGGGLVQAGGSLRLSCAASGFIFPSYAMGWYRQAPGKERELVAAITRSSGSTYYADSVKGRFTISRDNAKNTVYLEMNCLKAVDTAVYYCNAFDYSYYRSPEMDYWGQGTQVTVSS | high polyreactivity |
| QVQHVESGGGLVQAGGSLRLSCAASGYIFPGSAMGWYRPAPGKERELVAAISTSGGYTYYADSVKGRFTISRDNAKNTVYFQMNSLNPEVTAVYYCAADRYSTDPYAKGTEFYYWGQGTQVTVSS | low polyreactivity |
| QVQLVESGGGLVQAGGSLRLSCDDSGFIFFDYAMGWYRQAPGKEREFVAAISTRGGSTYYADSVKGLFTISRDNAKNTVYLQMNSLKPEDTSVYYCNARTIRPWGENGYWGQGTQVSVSS | high polyreactivity |
| QVQLVESGGGIVKAGGSLRISCAASGSTFIVNAMGWYRQAPGKERELVAAITEDGDTTYYADSVKGRFTISRDNAKNTVYLQMNSLKPEDTAVYFCAAETYYLDDYWGQGTQVTVSS | high polyreactivity |
| GSTIYADSVKGRFTISRDNAKNTVYLQMNSLKPEDTAVYYCNKDDRNDRTIPGYDPEYDYWGQGTQVTVSS | low polyreactivity |
| QVQLVESGGGLVQAGGSLRLSCAASGGTFPSNAMGWYRQAPGQERELVAAITGSSDTTYYADSVKGRFTISRDNAKNTVYLQMNSLKPEDTAVYYCAADTPRDTNRYEYWGQGTQVTVSS | low polyreactivity |
| QVQLVESGGGLVQAGGSLPLSCAASRLIFTPYAMGWYIQAPGKERELVAAINYGGSRTYYADSVKGRFTISRDNAKNTVYLQMNSLKPEDTAVYYCAARGYTLSYVDMYYWGQGTQVTVSS | high polyreactivity |
| QVQLVESGGGLVQAGGSLRLSCAASGRIDRPYAMGLYRPAPGKERELVAAISRRGGSTYYADSVKGRFTISRDNAKNTVYLQMKSLKPEDTAVYYCAADYWYESLRLQGIQGLDYWGQGTQVTVSS | high polyreactivity |

| Sequence | polyreactivity (PSR sort gate) |
| --- | --- |
| QVQLVESGGGVVQAGGSLRISCAASGSTFGFNAMGWYRQAPGKERELVAAINNSGDSTYYADSVKGRFTISRDNAKNTVYLQMNSLKPEDTAVYYCAAPYLGRYYKNGYWGQGTQVTVSS | low polyreactivity |
| QVQLVESGGGLVQAGGSLRLSCAASGFTFFSYAMGWYRQAPGKERELVATITWSGGTYYADSVKGRFTISRDNAKNTVYVQMNSLKPEDTAVYYCNARRHYRRYSYRHNYWGQGTQVTVSS | high polyreactivity |
| QVQLVESGGGLVQAGGSLRLICAASGSTFNIYAMGWYRQAPGKERELVAAITSSGGSTYYAESVKGRFTISRDNGKNTVYLQMNSLKPEYTAVYYCNTDQYSPYEYSSFDSWGQGSQVTVSS | low polyreactivity |
| QVQLVESGGGLVQAGGSLRLSCAASGFTFQIYAMGWYRQAPGKERELVAAITWSGGRTYYGDSVKGRFTISRDNAKNTVYLQMNSLKREDTAVYYSNARYTTGSDPGGPGTYGYWGQGTQVTVSS | low polyreactivity |
| QVQLVESGGGLVQAGGSLRLSCAASGYISNANAMGCYRQAPGKERELVAAITWSGGSTYADSVKGRFTITRDNAKNTVYLQMNSLKPEDTAVYYCAVGPYRVAKYNYWGQGTQVTVSS | low polyreactivity |
| QVQLVESGGGLVQAGGSLRLSCAASGSIFGVYTMGWYRQAPGKERELVAAISGSGGSTYYADSVKGRFTISRDNAKNTVYLQMNSLKPEDTAVYYCATRFPKIPPYDSWGQGTQVTVSS | low polyreactivity |
| QVQLVESGGGLVQAGGSLRLSCAASGSTSDINAMGWYRQAPGKERELVAVITDSSNTDYADSVKGRFTISRDNAKNTVYLQMNSLKPEDTAVYYCAADRDEPDPYDYWGQGTQVTVSS | low polyreactivity |
| QVQLVESGGGLVQAGGSLRLSCAASGGTFRPNAMGWYRQAPGKERELVAAITRSGGSTYYADSVKGRFTISRDNAKNTVYLQMNSLKPEDTAVYYCARDLREWGQGTQVTVSS | low polyreactivity |
| QVQLVESGGGLVQAGGSLRLSCAASGSTFTGYAMGWYRQAPGKERELVAAISRSVGRTYYADSVKGRFTISRDNAKNTVYLQMNSLKPEDTAVYYCAADVYLTGSRNYYWGQGTQVTVSS | high polyreactivity |
| QVQLVESGGGLVQAGGSLRLSCAASGSTFIGNAMGWYRQAPGKERELVAAITRSGGSTFYADSVKGRFTISRDNAKNTVYLQMNSLKPEDTAVYYCAARNGAYPALTAGDYWGQGTQVTVSS | high polyreactivity |
| QVQLVESGGGLVQAGGSLRISCAASGSIFTPNAMGWYRQAPGKERELVAAISSSSDRTYYADSVKGRFTISRDNAKNTVYLQMNSLKPEDTAVYYCNAYYRYGIQFDYWGQGTQVTVSS | high polyreactivity |
| HVQLVETGGGLVQAGGSLRLSCAASGRTFDSYTMGWYRQAPGKERELVADITFTGGSTYYADSVKGRFTISRDNAKNTVYLQMNSLKPEATAVYYCNADREYKWYFRYDYWGQGTQVTVSS | low polyreactivity |
| QVQLEESGGGLGQAGGSLRLSCAASGRIFRDYAMGWSRQAPGKERELVAAITSGGTTYADSVKGRVTISRDNAKNTVYLQLNSLKPEDTAVYYCNVAWIWGKFDYWGQGTQVTVSS | high polyreactivity |
| QVQLVESGGGLVQAGGSLRLSCAASGSTFNLYAMGWYRQAPGKERELVAAISDGDSSTYYADSVKGRFTISRDNAKNTVYLQMNSLKPEDTAVYYCAADFSVYTEEDDSWGQGTQVTVSS | low polyreactivity |
| QVQLVESGGGLVQAGGSLRLSCAASGRIFYLYTMGWYRQAPGKERELVAAITRAGRTYYADSVKGRFTISRDNAKNTVYLQMNSLKPEDTAVYYCAAAFLSRVQGYDSWGQGTQVTVSS | high polyreactivity |
| QVQLVESGGGLVQAGGSLRLSCAASGIIFTPNAMGWSRQAPGKERELVAAINYGGDTTYYADSVKGRFTISRDNAKNTVYFQMNSLKPADTAVYYCATDGTTPTPRDAFVRFDHWGQGTQVTVSS | low polyreactivity |
